Reference: US20120165244A1, “METHODS FOR BINDING LEWIS Y ANTIGEN” (priority 2008, published 2012)

Assays:
[1] = Clearance of LPS in circulation (Limulus amebocyte lysate test); assay type: in vivo; details: LPS 20 mg/kg i.p.; rTMD1 10 mg/kg i.v.
Experimental: (§1) Male FVB mice (8-10 weeks old) were used to model sepsis in vivo. The Institutional Animal Care and Use Committee of the National Cheng Kung University approved procedures. In the chronic endotoxemia model, various concentrations of rTMD1 or rTMD proteins in equi-molar amounts were administrated by tail intravenous (i.v.) injection and LPS (20 mg/kg) or K. pneumoniae (5×10^2 CFU/mouse, BCRC) was administrated by intraperitoneal (i.p.) injection. After 6 or 12 hours, mice were sacrificed by pentobarbital anesthesia (50 mg/kg; i.p.). […] The half-life of rTMD1 in the circulation was determined by i.v. injection of rTMD1 (10 mg/kg, equals 436.64 nmole/kg) and serum samples were collected at various time intervals. The levels of rTMD1 in the collected sera were determined by a sandwich ELISA which employed anti-c-Myc monoclonal antibody and TM-H300 as capture and detection antibodies (both from Santa Cruz Biotechnology), respectively. […] Mortality was monitored every 6-12 hours until all mice in either experimental group died. […] Serum samples were collected at various time intervals and the amount of LPS was determined by Limulus amebocyte lysate test (Associates of Cape Cod, E. Falmouth, Mass.). […] Outgrowth of K. pneumoniae was quantified by plating serial dilutions of blood samples on blood agar plates and enumerating colonies after overnight incubation at 37° C.

[2] = Chronic endotoxemia model (LPS 20 mg/kg i.p.) in mice; assay type: in vivo, Male FVB mice
Experimental: (§2) TNF-α in conditioned medium or mouse serum was measured by an enzyme-linked immunosorbent assay (ELISA) (R&D Systems, Minneapolis, Minn.). Accumulation of nitrite in the medium or mouse serum was determined by a colorimetric assay using Griess reagent (Sigma-Aldrich). Blood urea nitrogen (BUN) and creatinine were measured with a Roche D&P modular (Roche Diagnostic Systems, Branchburg, N.J.). Assays were performed according to the manufacturer's protocol.
Male FVB mice (8-10 weeks old) were used to model sepsis in vivo. The Institutional Animal Care and Use Committee of the National Cheng Kung University approved procedures. In the chronic endotoxemia model, various concentrations of rTMD1 or rTMD proteins in equi-molar amounts were administrated by tail intravenous (i.v.) injection and LPS (20 mg/kg) or K. pneumoniae (5×10^2 CFU/mouse, BCRC) was administrated by intraperitoneal (i.p.) injection. After 6 or 12 hours, mice were sacrificed by pentobarbital anesthesia (50 mg/kg; i.p.). Sera were collected and assayed for TNF-α, NO, BUN, and creatinine, and lung and kidney tissues were removed, fixed with formalin, and embedded in paraffin for histochemical examination. In the lethal sepsis model, rTMD1 (2 mg/kg, equals 87.3 nmole/kg) was i.v.-administrated at 0, 6, 12, and 24 hours after i.p. administration of LPS (40 mg/kg). The half-life of rTMD1 in the circulation was determined by i.v. injection of rTMD1 (10 mg/kg, equals 436.64 nmole/kg) and serum samples were collected at various time intervals. The levels of rTMD1 in the collected sera were determined by a sandwich ELISA which employed anti-c-Myc monoclonal antibody and TM-H300 as capture and detection antibodies (both from Santa Cruz Biotechnology), respectively. For the lethal bacteremia model, rTMD1 (10 mg/kg) was administrated prior to i.p. injection of K. pneumoniae (5×10^3 CFU/mouse). Mortality was monitored every 6-12 hours until all mice in either experimental group died. Experimental procedure of determining LPS half-life is as following. LPS (20 mg/kg) was i.p.-administrated to male FVB mice without or with rTMD1 (10 mg/kg; i.v.). Serum samples were collected at various time intervals and the amount of LPS was determined by Limulus amebocyte lysate test (Associates of Cape Cod, E. Falmouth, Mass.). A further experiment was performed to determine whether rTMD1 affects bacterial clearance. K. pneumoniae (5×10^2 CFU/mouse) was i.p.-administrated to male FVB mice without or with rTMD1 (10 mg/kg; i.v.), and blood samples were collected at various time intervals. Outgrowth of K. pneumoniae was quantified by plating serial dilutions of blood samples on blood agar plates and enumerating colonies after overnight incubation at 37° C.

[3] = Half-life of rTMD1 in the circulation (sandwich ELISA); assay type: in vivo, Male FVB mice; details: mice
Experimental: as §1

RAW 264.7 cells = assay: LPS-induced TNF-α production in RAW 264.7 cells (ELISA); assay type: cell-based, murine
Experimental: (§3) Human leukemia monocytic THP-1 cells and murine macrophage cell line RAW 264.7 were obtained from the American Type Culture Collection. THP-1 cells were grown in suspension in RPMI-1640 supplemented with 10 mM HEPES, 1 mM sodium pyruvate, 0.1% β-mercaptoethanol, 100 U/ml penicillin, 100 µg/ml streptomycin, and 10% fetal bovine serum (FBS). RAW 264.7 cells were grown as an adhered layer in Dulbecco's modified Eagle's medium with 4 mM L-glutamine adjusted to contain 1.5 g/l sodium bicarbonate and 4.5 g/l glucose, 100 U/ml penicillin, […] streptomycin, and 10% FBS under a humidified 5% CO2 atmosphere at 37° C. For differentiation, THP-1 cells were plated in medium containing 10 nM PMA and allowed to adhere for 18 h.
as §2

E. coli DH5α = assay: Bacterial agglutination, FITC-labeled E. coli DH5α; details: 20 μg/mL protein, 5 mM CaCl2
Experimental: K. pneumoniae and E. coli DH5α (BCRC) were washed twice in 0.1 M sodium bicarbonate buffer (pH 9.6) and incubated with 0.1 mg/mL fluorescein isothiocyanate (FITC) at 37° C. in the dark. Each of 20 μg/mL of rTMD1, non-tagged rTMD1, mammalian rTMD1, and recombinant TM domains 2 and 3 (rTMD23) was co-incubated with FITC-labeled bacteria (1×10^5CFU/mL) in buffer (20 mM Tris, pH 7.4, 0.15 M NaCl, 5 mM CaCl2, 1 mg/mL BSA) with or without 0.2 M mannose or 5 mM EDTA. Samples were individually placed on a glass slide and fluorescently-labeled bacteria were observed microscopically to evaluate agglutination.

K. pneumoniae = K. pneumoniae clearance in circulation (viable CFU counts in blood); assay type: in vivo, male FVB mice
Experimental: as §1

[4] = Lethal sepsis model (LPS 40 mg/kg i.p.), survival; assay type: in vivo, Male FVB mice; details: four i.v. doses of 2 mg/kg
Experimental: as §1

THP-1 cells = assay: THP-1 phagocytosis assay with FITC-labeled K. pneumoniae; assay type: cell-based, Human; details: activated THP-1 cells
Experimental: as §3
FITC-labeled K. pneumoniae (1×10^5 CFU/well) were pre-incubated with rTMD1 at 37° C. for 30 minutes before adding to differentiated THP-1 cells. After incubation for 2 hours the THP-1 cells were washed twice with ice-cold PBS prior to fluorescence microscopy, or were further trypsinized, resuspended in PBS, and analyzed in a fluorescence-activated cell sorter (FACS; Becton Dickinson, San Jose, Calif.) to measure THP-1 cell intracellular fluorescence. Green fluorescence data from 10,000 events (cells) per condition collected at 530 nm on a log scale were analyzed with CellQuest™ software (Becton Dickinson).

[5] = 12 hours after LPS, compared with LPS-treated mice
[6] = rTMD1 1-5 mg/kg i.v., 6 hours after LPS 20 mg/kg i.p.

B1: rTMD1: recombinant human thrombomodulin N-terminal lectin-like domain (residues Ala1-Ala155) with 6×His tag and c-Myc epitope, Pichia pastoris expressed (protein)
chain: EFAPAEPQPGGSQCVEHDCFALYPGPATFLNASQICDGLRGHLMTVRSSVAADVISLLLNGDGGVGRRRLWIGLQLPPGCGDPKRLGPLRGFQWVTGDNNTSYSRWARLDLNGAPLCGPLCVAVSAAEATVPSEPIWEEQQCEVKADGFLCEFHFPAYLEDDDDKIEQKLISEEDLNSAVDHHHHHH
modifications: left off: small tags and cut ends
With B1 the LPS clearance [1] was “significantly enhanced”, the “pulmonary accumulation of PMNs / LPS-induced inflammatory responses” value ([2]; 6 hours after LPS administration (FIG. 2C-D)) was “significantly inhibited” and the BUN level [2, 5] was “markedly reduced”. For the same molecule, the serum creatinine level [2, 5] was “markedly reduced”, the extent of glomerulonephritis ([2]; kidney, 12 hours after LPS 20 mg/kg (FIG. 2E)) was “significantly reduced” and the “NO levels in mice” value [2, 6] was “significantly decreasing levels”. The “TNF-α levels in mice” value [2, 6] was “significantly decreasing levels”, the “time detectable after each i.v. injection” value ([3]; i.v.) was no more than 12 h and the half-life in circulation ([3]; i.v. 10 mg/kg) was 3 to 4 h. The “TNF-α production in RAW 264.7 cells stimulated with LPS” value (RAW 264.7 cells; pre-incubated with LPS, 6 hours incubation (FIG. 1A)) was “dose-dependently inhibited”, the “LPS-induced TNF-α production” value (RAW 264.7 cells; various concentrations of LPS and rTMD1 (FIG. 1C)) was “dose-dependently inhibited” and the “agglutination of E. coli DH5α” value (E. coli DH5α) was “induced marked agglutination”. The “K. pneumoniae clearance in circulation, post-treatment” value (K. pneumoniae; 12, 24, 36 hours after infection, rTMD1 given up to 30 or 60 minutes after infection) was “enhance”, the “K. pneumoniae clearance in circulation” value (K. pneumoniae; 12, 24, and 36 hours after injection, rTMD1 10 mg/kg i.v., 5×10^2 CFU) was “significantly enhanced” and the survival ([4]; 1 day after LPS challenge) was 100%. The survival ([4]; 4 days after LPS challenge) was 60% and the “bacterial phagocytosis by THP-1 cells” value (THP-1 cells) was “markedly increased”.
